Measurements: patent US6403765B1, “Truncated Apaf-1 and methods of use thereof” (Thomas Jefferson University, priority 1998, dated 2002)

T1: procaspase-9 (Homo sapiens, UniProt P55211)
T1 construct: schematic representation of full length procaspase-9; made in house; host or cells: coupled in vitro transcription/translation in rabbit reticulocyte lysate (TNT Kit, Promega)
T1 sequence (P55211 1-416): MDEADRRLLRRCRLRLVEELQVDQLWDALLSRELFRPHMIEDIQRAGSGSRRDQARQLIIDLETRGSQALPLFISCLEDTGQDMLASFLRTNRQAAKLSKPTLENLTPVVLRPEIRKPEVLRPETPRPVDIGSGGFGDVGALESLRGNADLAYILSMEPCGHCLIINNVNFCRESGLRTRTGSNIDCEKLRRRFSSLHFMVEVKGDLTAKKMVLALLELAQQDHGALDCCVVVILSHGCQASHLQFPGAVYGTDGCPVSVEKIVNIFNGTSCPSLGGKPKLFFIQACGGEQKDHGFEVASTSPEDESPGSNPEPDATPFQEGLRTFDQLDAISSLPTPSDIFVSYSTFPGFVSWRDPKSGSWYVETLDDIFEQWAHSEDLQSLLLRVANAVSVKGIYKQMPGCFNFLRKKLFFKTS


How the values were obtained:
procaspase-9 = molecular target: T1, procaspase-9; assay: In vitro caspase 9 activation assay: recombinant Apaf-1 variants incubated with in vitro translated procaspase-9; assay type: biochemical; settings: bacterial lysates with truncated Apaf-1 variants, FIG. 2B
Protocol: SDS sample buffer was then added to each sample, boiled and subjected to SDS-PAGE analysis followed by autoradiography. In FIG. 2A procaspase-9 was in vitro translated in the presence of ^35S-methionine. Following translation procaspase-9 was desalted by gel filtration through a biospin column (BioRad) to remove unincorporated methionine and free nucleotides. Desalted procaspase-9 was then incubated with 200 ng Ni^2+-affinity purified bacterially expressed recombinant Apaf-530 (WT or K149R mutant) in the presence or absence of cytochrome c or dATP or both for 2 h at 30° C. A mock sample containing Ni^2+-affinity purified material from bacteria transformed with an empty vector was used as a negative control. Following incubation the products were analyzed by SDS-PAGE and autoradiography. In FIG. 2B^35S-labeled procaspase-9 (as described above) was incubated with bacterial lysates containing truncated Apaf-1 variants as indicated and then analyzed as above (2B upper panel). The bacterial lysates were analyzed by SDS-PAGE and immunoblotted with an Apaf-1 antibody which recognizes the N-terminus of Apaf-1 (lanes 2-6) and an anti T7-tag antibody (lanes 7-8) to confirm expression and equivalent concentration of the different Apaf-1 variants (2B lowerpanel). The molecular mass markers are indicated to the right of the lower panel.
^35S-labeled caspases were obtained by in vitro translation in the presence of ^35S-methionine using a coupled transcription/translation system in rabbit reticulocyte lysate using TNT Kit (Promega) according to the manufacturer's recommendations.
To determine the role of the WD-40 repeat in the mechanism of Apaf-1-induced processing of procaspase-9, truncated Apaf-1 (Apaf-530) lacking its WD-40 repeats (FIG. 1) was expressed and purified. To reconstitute a recombinant caspase-9 activation system, the truncated Apaf-530 was incubated with in vitro translated recombinant procaspase-9 in the presence or absence of cytochrome c and dATP. […] It was previously shown that mutation of CED-4 K165R which is required for nucleotide binding destroys its activity (Chinnaiyan et al., Nature 388:728-729, 1997; Jarnes et al., Curr. Biol. 7:246-252, 1997; Seshagiri and Miller, Curr. Biol. 7:455-460, 1997). […] Therefore, either binding of Apaf-1 to cytochrome c and dATP or deletion of the repeats could induce a conformational change enabling Apaf-1 to bind and process procaspase-9.
In FIG. 3, ^35S-labeled WT or mutant D330A, D315A or C287A mutants of procaspase-9 or prodomainless procaspase-9 (Δpro, residues 134-416) were incubated with buffer (lanes 1, 4, 7, 10, 13), purified Apaf-530 (lanes 2, 5, 8, 11, 14) or mock purified material (lanes, 3, 6, 9, 12, 15) and then analyzed by SDS-PAGE and autoradiography.

T7-tagged Bcl-xL = molecular target: T2, T7-tagged Bcl-xL (Homo sapiens, UniProt Q07817); assay: Co-immunoprecipitation of Flag-tagged Apaf-1 variants or procaspase-9 with T7-tagged Bcl-xL in 293 cells; assay type: binding; settings: anti-Flag immunoprecipitation, anti-T7 blot, 36 hours, FIG. 16
T2 construct: expressed in transfected cells; host or cells: 293 cells
T2 sequence (Q07817 whole entry): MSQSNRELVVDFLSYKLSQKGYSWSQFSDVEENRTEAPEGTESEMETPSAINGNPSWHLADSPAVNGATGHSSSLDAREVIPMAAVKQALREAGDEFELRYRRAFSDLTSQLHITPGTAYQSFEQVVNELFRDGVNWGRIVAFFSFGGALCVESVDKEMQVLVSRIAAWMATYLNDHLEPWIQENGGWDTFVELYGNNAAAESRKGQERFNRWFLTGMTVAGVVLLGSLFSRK
Protocol: In vivo interaction experiments between Apaf-1 variants and Bcl-xL were performed. To analyze the ability of Apaf-1 to interact with Bcl-xL, 293 cells were co-transfected with constructs encoding T7-tagged Bcl-xL and constructs encoding Flag-tagged Apaf-97 (FIG. 16, lane 1), Apaf-1 (FIG. 16, lane 2), Apaf-530 (FIG. 16, lane 3) Apaf-530ΔCARD (FIG. 16, lane 4), or procaspase-9 C287A (FIG. 16, lane 5). After 36 hours, extracts were prepared and immunoprecipitated with a monoclonal antibody to the Flag epitope. The immunoprecipitates (FIG. 16, upper panel) were analyzed by SDS-PAGE and immunoblotted with a horseradish peroxidase-conjugated T7 antibody. The corresponding cellular extracts were also analyzed by SDS-PAGE and immunoblotted with a horseradish peroxides-conjugated T7 antibody (FIG. 16, middle panel) or an anti-Flag antibody (FIG. 16, lower panel).

Molecule | activity of the Apaf-1 variant in promoting activation of procaspase-9 (procaspase-9) | further results
Apaf-420: truncated Apaf-1, residues 1-420, minimal conserved sequence between Apaf-1 and CED-4 (protein, UniProt O14727 1-420, looked up, fragment) MDAKARNCLLQHREALEKDIKTSYIMDHMISDGFLTISEEEKVRNEPTQQQRAAMLIKMILKKDNDSYVSFYNALLHEGYKDLAALLHDGIPVVSSSSGKDSVSGITSYVRTVLCEGGVPQRPVVFVTRKKLVNAIQQKLSKLKGEPGWVTIHGMAGCGKSVLAAEAVRDHSLLEGCFPGGVHWVSVGKQDKSGLLMKLQNLCTRLDQDESFSQRLPLNIEEAKDRLRILMLRKHPRSLLILDDVWDSWVLKAFDSQCQILLTTRDKSVTDSVMGPKYVVPVESSLGKEKGLEILSLFVNMKKADLPEQAHSIIKECKGSPLVVSLIGALLRDFPNRWEYYLKQLQNKQFKRIRKSSSYDYEALDEAMSISVEMLREDIKDYYTDLSILQKDVKVPTKVLCILWDMETEEVEDILQEFVN | – | less activity than Apaf-530 in promoting procaspase-9 processing (procaspase-9): ~90%
Apaf-350: truncated Apaf-1, residues 1-350 (protein, UniProt O14727 1-350, looked up, fragment) MDAKARNCLLQHREALEKDIKTSYIMDHMISDGFLTISEEEKVRNEPTQQQRAAMLIKMILKKDNDSYVSFYNALLHEGYKDLAALLHDGIPVVSSSSGKDSVSGITSYVRTVLCEGGVPQRPVVFVTRKKLVNAIQQKLSKLKGEPGWVTIHGMAGCGKSVLAAEAVRDHSLLEGCFPGGVHWVSVGKQDKSGLLMKLQNLCTRLDQDESFSQRLPLNIEEAKDRLRILMLRKHPRSLLILDDVWDSWVLKAFDSQCQILLTTRDKSVTDSVMGPKYVVPVESSLGKEKGLEILSLFVNMKKADLPEQAHSIIKECKGSPLVVSLIGALLRDFPNRWEYYLKQLQNKQF | further reduced its activity | –
Apaf-WD: WD-40 repeat region of Apaf-1, residues 530-1194 (protein, UniProt O14727 530-1194, looked up, fragment) RHILDEKDCAVSENFQEFLSLNGHLLGRQPFPNIVQLGLCEPETSEVYQQAKLQAKQEVDNGMLYLEWINKKNITNLSRLVVRPHTDAVYHACFSEDGQRIASCGADKTLQVFKAETGEKLLEIKAHEDEVLCCAFSTDDRFIATCSVDKKVKIWNSMTGELVHTYDEHSEQVNCCHFTNSSHHLLLATGSSDCFLKLWDLNQKECRNTMFGHTNSVNHCRFSPDDKLLASCSADGTLKLWDATSANERKSINVKQFFLNLEDPQEDMEVIVKCCSWSADGARIMVAAKNKIFLFDIHTSGLLGEIHTGHHSTIQYCDFSPQNHLAVVALSQYCVELWNTDSRSKVADCRGHLSWVHGVMFSPDGSSFLTSSDDQTIRLWETKKVCKNSAVMLKQEVDVVFQENEVMVLAVDHIRRLQLINGRTGQIDYLTEAQVSCCCLSPHLQYIAFGDENGAIEILELVNNRIFQSRFQHKKTVWHIQFTADEKTLISSSDDAEIQVWNWQLDKCIFLRGHQETVKDFRLLKNSRLLSWSFDGTVKVWNIITGNKEKDFVCHQGTVLSCDISHDATKFSSTSADKTAKIWSFDLLLPLHELRGHNGCVRCSAFSVDSTLLATGDDNGEIRIWNVSNGELLHLCAPLSEEGAATHGGWVTDLCFSPDGKMLIS | inactive | –
procaspase-9: Flag-tagged procaspase-9 C287A co-transfected with T7-tagged Bcl-xL (protein, UniProt P55211 1-416, looked up, variant C287A, pro-form Flag tag, Flag-tagged procaspase-9 C287A co-transfected with T7-tagged Bcl-xL) pro-form: MDEADRRLLRRCRLRLVEELQVDQLWDALLSRELFRPHMIEDIQRAGSGSRRDQARQLIIDLETRGSQALPLFISCLEDTGQDMLASFLRTNRQAAKLSKPTLENLTPVVLRPEIRKPEVLRPETPRPVDIGSGGFGDVGALESLRGNADLAYILSMEPCGHCLIINNVNFCRESGLRTRTGSNIDCEKLRRRFSSLHFMVEVKGDLTAKKMVLALLELAQQDHGALDCCVVVILSHGCQASHLQFPGAVYGTDGCPVSVEKIVNIFNGTSCPSLGGKPKLFFIQAAGGEQKDHGFEVASTSPEDESPGSNPEPDATPFQEGLRTFDQLDAISSLPTPSDIFVSYSTFPGFVSWRDPKSGSWYVETLDDIFEQWAHSEDLQSLLLRVANAVSVKGIYKQMPGCFNFLRKKLFFKTS | – | co-immunoprecipitation with Bcl-xL (T7-tagged Bcl-xL): capable of immunoprecipitating
